According to article PMC4522956, “Unsaturated fatty acids as high-affinity ligands of the C-terminal Per-ARNT-Sim domain from the Hypoxia-inducible factor 3α” (Scientific Reports, 2015):

Target: T1, HIF-1β PASb labeled with FITC (human (cDNA library from the breast …, UniProt P27540 349-467, FITC (fluorescein isothiocyanate) label, sites not stated))
T1 construct: HIF-1β (ARNT), PASb domain, Pro349-Ser467 of UniProt P27540; Same construct as m2, labeled with a 20-fold molar excess of FITC in borate buffer pH 8.5; also called PASb-1β labeled with FITC; PASb-1β; source: E. coli Rosetta-2, purified (TALON, MonoQ, Superdex 75), then labeled with FITC; not shown: 6xHis, N-terminal, cleaved
Test: fluorescence polarisation; unlabeled PASb-1α or PASb-3α serially diluted 1:2 from about 1 mM, mixed with FITC-labeled PASb-1β at 20 nM final; 30 mM Hepes pH 7.5, 150 mM NaCl, 0.5 mM TCEP; room temperature; triplicate
Settings: both partners purified

T1 sequence (P27540 349-467): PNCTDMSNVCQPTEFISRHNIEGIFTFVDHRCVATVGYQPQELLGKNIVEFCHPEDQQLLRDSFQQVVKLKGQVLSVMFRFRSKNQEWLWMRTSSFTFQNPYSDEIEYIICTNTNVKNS

- binding result: binds
B1: HIF-1α PASb (domain or fragment)
chain: not shown
notes: Hypoxia-inducible factor 1α, PASb domain, Asp238-His348 of UniProt Q16665; Cloned NdeI/XhoI into pET28a; residues of the vector probably remain at the N-terminus after thrombin cleavage (surmise); also called PASb-1α; source: E. coli Rosetta-2, purified (TALON, MonoQ, Superdex 75); not shown: 6xHis, N-terminal, cleaved
